Measured values: patent publication US7166764B2, “Noc2 knockout mouse” (JCR Pharmaceuticals Co., Ltd., priority 2004, dated 2007)

Columns and labels:
pancreatic acinar cells = experiment: Amylase secretion from isolated pancreatic acinar cells; assay type: cell-based, mouse; details: 30 pM CCK or 1 μM carbachol, n=12, means±s.e.m.
Method: Pancreatic acini were prepared by collagenase digestion method. Amylase secretion experiments were performed according to Ohnishi et al. (28) with slight modifications. Briefly, isolated acini were suspended in an incubation buffer [consisting of 10 mM HEPES (pH 7.4), 127 mM NaCl, 4.7 mM KCl, 0.6 mM MgCl2, 1.3 mM CaCl2, 0.6 mM Na2HPO4, 2.0 mg/ml glucose, Eagle's MEM amino acids supplement, 2 mM L-glutamine, 1% BSA, 0.01% soybean trypsin inhibiter] as previously described (28) and preincubated at 37° C. for 30 minutes. After preincubation, the acini were centrifuged, resuspended in fresh incubation buffer, and incubated at 37° C. in the presence or absence of 30 pM CCK or 1 μM carbachol. Amylase released into the supernatant during incubation was quantified using Amylase B-test WAKO (WAKO PURE CHEMICAL INDUSTRIES). Amylase secretion was normalized as the amount released into the medium relative to the total amylase content in the pancreatic acinar cells (expressed as % amylase release).

Rab5A = target: T1, Rab5A (Homo sapiens, UniProt P20339); experiment: In vitro binding assay (cosedimentation, GST-Noc2 on glutathione beads); details: lysates of COS-1 cells transfected with FLAG-tagged Rab5; GDP-βS or GTP-γS
T1 construct: Full-length Rab3A, B, C and D and Rab5 cDNAs were subcloned into pFLAG-CMV-2 (SIGMA); expressed in transfected cells; host or cells: COS-1 cells (lysate)
T1 sequence (P20339 1-215): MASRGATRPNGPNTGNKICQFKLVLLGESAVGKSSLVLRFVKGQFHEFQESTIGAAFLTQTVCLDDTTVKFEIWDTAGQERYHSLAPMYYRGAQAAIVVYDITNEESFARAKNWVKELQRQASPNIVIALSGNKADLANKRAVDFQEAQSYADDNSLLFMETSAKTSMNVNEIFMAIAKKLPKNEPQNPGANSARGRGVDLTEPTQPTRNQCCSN
Method: Wild type Noc2 and mutant Noc2 (Noc2AAA), both full-length, were expressed as GST-fusion proteins and purified according to the manufacturer's instructions (AMERSHAM). Full-length Rab3A, B, C and D and Rab5 cDNAs were subcloned into pFLAG-CMV-2 (SIGMA). For cosedimentation assays, COS-1 cells were transfected with each of the plasmids using LipofectAMINE (INVITROGEN). Following the transfection, the cells were sonicated in a buffer [20 mM HEPES, pH 7.4, 200 mM NaCl, 1 mM dithiothreitol, 5 mM MgCl2, 1 mM ATP and 0.26% (v/v) CHAPS]. In vitro binding assay was performed as previously described (15). Briefly, lysates from COS-1 cells transfected with FLAG-tagged Rab3 isoforms and Rab5 were assessed for binding to GST-Noc2 immobilized on glutathione beads in the presence of GDP-βS or GTP-γS. Rab3 isoforms and Rab5 and GST-Noc2 were detected by immunoblotting with anti-Flag antibody or immunoglobulin G-purified antibody against rat Noc2.

Rab3 isoforms = experiment: as above; details: lysates of COS-1 cells transfected with FLAG-tagged Rab3 isoforms; GDP-βS or GTP-γS
Method: Pancreatic islets were isolated by collagenase digestion method in a conventional manner (27). The pancreatic islets were cultured for 48 hours in RPMI1640 medium in the presence or absence of PTX (30 ng/ml). Batch incubation was performed as previously described (27). Insulin released into the medium was measured by radioimmunoassay (EIKEN CHEMICAL). Recombinant adenoviruses carrying either LacZ, Noc2 wt (wild-type), or Noc2AAA (mutant) cDNA were generated according to the manufacturer's instructions (STRATAGENE). For preparation of Noc2AAA, Trp-Phe-Tyr (residues 154–156) were replaced with three alanine residues as previously described (24). […] Lysate from COS-1 cells transfected with a Flag-tagged Rab3 isoforms was evaluated for binding to the GST-Noc2 wild-type (Noc2 wt) or the GST-Noc2 mutant (Noc2AAA) in the presence of GTP-γS.
Wild type Noc2 and mutant Noc2 (Noc2AAA), both full-length, were expressed as GST-fusion proteins and purified according to the manufacturer's instructions (AMERSHAM). […] Briefly, lysates from COS-1 cells transfected with FLAG-tagged Rab3 isoforms and Rab5 were assessed for binding to GST-Noc2 immobilized on glutathione beads in the presence of GDP-βS or GTP-γS. Rab3 isoforms and Rab5 and GST-Noc2 were detected by immunoblotting with anti-Flag antibody or immunoglobulin G-purified antibody against rat Noc2.

[1] = pancreatic acini of Noc2−/− mice, basal level 4.9±0.5%
[2] = pancreatic acini of wild-type mice, basal level 5.6±0.9%

C[N+](C)(C)CCOC(N)=O [carbachol, reference compound]
% amylase released of total amylase content (pancreatic acinar cells; [1]): 6.2±0.5% | % amylase released of total amylase content (pancreatic acinar cells; [2]): 15.6±0.8%

B1: cholecystokinin (peptide, UniProt P06307 21-115, looked up)
Cholecystokinin: QPVPPADPAGSGLQRAEEAPRRQLRVSQRTDGESRAHLGALLARYIQQARKAPSGRMSIVKNLQNLDPSHRISDRDYMGWMDFGRRSAEEYEYPS
modifications: Cholecystokinin
% amylase released of total amylase content (pancreatic acinar cells; [1]): 5.8±0.5% | % amylase released of total amylase content (pancreatic acinar cells; [2]): 13.0±0.7%

B2: Noc2: full-length wild type Noc2 expressed as GST-fusion protein (protein)
chain: MADTIFSSGNDQWVCPNDRQLALRAKLQTGWSVHTYQTEKQRRSQCLSPGELEIILQVIQRAERLDILEQQRIGRLVERLETMQRNVMGNGLSQCLLCGEVLGFLGSSSVFCKDCRKKVCTKCGIEASPGQKRPLWLCKICSEQREVWKRSGAWFYKGLPKYILPLKTPGRADDPHFRPLPVEPTETQPPSAETSRVYTWARGRVVSSDSDSDSDLSSSSLEDRPLPSGVKGTKGDKPRGDSGASMESPRLGPARPPSHLSGSQSSLGSEAGTGATEPQGGTPAQPEPRVPGKRHTWATPRY
modifications: left off: a dimerising Fc or GST
notes: full-length wild type Noc2 expressed as GST-fusion protein
binding to Rab5A (Rab5A): not to Rab5A | binding to Rab3 isoforms (Rab3A–D) (Rab3 isoforms): binds to all of the isoforms of Rab3 in a GTP-dependent manner

B3: Noc2AAA: mutant Noc2, Trp-Phe-Tyr (residues 154–156) replaced with three alanine residues, GST-fusion protein (protein)
chain: MADTIFSSGNDQWVCPNDRQLALRAKLQTGWSVHTYQTEKQRRSQCLSPGELEIILQVIQRAERLDILEQQRIGRLVERLETMQRNVMGNGLSQCLLCGEVLGFLGSSSVFCKDCRKKVCTKCGIEASPGQKRPLWLCKICSEQREVWKRSGAAAAKGLPKYILPLKTPGRADDPHFRPLPVEPTETQPPSAETSRVYTWARGRVVSSDSDSDSDLSSSSLEDRPLPSGVKGTKGDKPRGDSGASMESPRLGPARPPSHLSGSQSSLGSEAGTGATEPQGGTPAQPEPRVPGKRHTWATPRY
binding to Rab3 isoforms (Rab3A–D) (Rab3 isoforms): does not bind any isoform of Rab3
